Measurements: patent US20200207835A1, “SRCP1-BASED THERAPY FOR DISEASES ASSOCIATED WITH PROTEIN AGGREGATION” (THE MEDICAL COLLEGE OF WISCONSIN, INC., priority 2017, published 2020)

Experiments:
[1] = target: T1, ^GFPHtt^ex1Q23 (Homo sapiens, UniProt P42858, DUP37-38); assay: GFPHttex1Q23 levels in transfected HEK293 cells (western blot); format: cell-based; conditions: HEK293, 48 hours post-transfection
T1 construct: encoding pEGFP huntingtin exon-1 with 23 (^GFPHtt^ex1Q23) or 74 (^GFPHtt^ex1Q74) glutamines; host or cells: HEK293
Description: Transfections were performed with Lipofectamine 2000 (Invitrogen by ThermoFisher Scientific) and adapted from the manufacturer's instructions. Briefly, cells were plated on either 12-well or 6-well plates and transfected at 50-70% confluency. For 12-well transfections, 0.833 μg of DNA per well was mixed with 50 μl of OptiMEM (Gibco by Life Technologies) media and incubated for 5 minutes at room temperature. Lipofectamine 2000 in a 2:1, μl of lipofectamine: μg DNA ratio was mixed with 50 μl of OptiMEM media and incubated for 5 minutes at room temperature. DNA and Lipofectamine were mixed and incubated for 15 minutes at room temperature. Fresh media was added to cells prior to the addition of DNA and lipofectamine. For 6-well transfections, the same protocol is followed except that 1.25 μg of DNA per well and 100 μl of OptiMEM for dilution was used. Media was changed 24 hours post-transfection and cells were harvested 48 hours post-transfection. Prior to harvesting, HEK293 cells were washed three times with ice-cold 1×PBS. Samples were then lysed with either 150 μl of ice-cold NETN (with protease inhibitor) or 1× Laemmli Buffer and sonicated twice for 5-8 seconds.
Following sonication, lysates were subjected to BCA protein assay (ThermoFisher Scientific) and prepared for loading by the addition of 4× laemmli buffer and boiling for four minutes. […]

[2] = system: HD iPSC-derived neurons; assay: Neurite length in HD iPSC-derived neurons; format: cell-based, human; conditions: HD iPSC-derived neurons with 60 or 180 glutamines, overexpression of SRCP1
Description: (§1) iPSC transfections were performed with mixed cultures of astrocytes and neurons adhered to matrigel-coated coverslips, seeded at 2.6×10^4 cells/cm^2. iPSC transfections were performed using Lipofectamine 2000 according to the manufacturer's instructions and recommended DNA concentrations for a 24-well transfection.
(§2) Plated iPSC derived cultures of astrocytes and neurons were fixed with 4% paraformaldehyde in PBS for 20 minutes at room temperature, 3-5 days after transfection. Cells were permeabilized and blocked prior to antibody labeling. Nuclei were labeled with Hoechst nuclear dye. Primary antibodies used were rabbit anti-Tuj1 (Covance MRB-435P), chicken anti-Tuj1(Gene Tex, GTX85469) and mouse anti-GFAP (Cell Signaling, 3670). Images were taken using an upright Nikon fluorescent microscope with a 40× objective. The number of neural cells with GFP positive puncta was quantified using NIS Elements object quantification tool (Nikon) and neurite length was measured using NIS Elements length measurement tool (Nikon).
For control iPSCs, four biological replicates from two independent differentiations were analyzed and for HD iPSCs, four biological replicates were analyzed from four separate differentiations using two independent HD lines.

[3] = target: T2, ^GFPHtt^ex1Q74 (Homo sapiens, UniProt P42858); assay: GFPHttex1Q74 aggregation in zebrafish spinal cord neurons; format: in vivo; design: encoding pEGFP huntingtin exon-1 with 23 (^GFPHtt^ex1Q23) or 74 (^GFPHtt^ex1Q74) glutamines; host or cells: zebrafish embryos injected with in vitro transcribed mRNA; spinal cord neurons imaged; conditions: zebrafish embryos injected with RNA
Description: To test the effect of ^RFPSRCP1 on ^GFPHtt^ex1Q74 aggregation in zebrafish, each plasmid was used for in vitro synthesis of mRNA (mMessage mMachine T7 transcription kit, ThermoFisher Scientific). Newly fertilized embryos were injected with either 200 pg mRNA each of ^RFPSRCP1 and ^GFPHtt^ex1Q74, or RFP alone and ^GFPHtt^ex1Q74. Embryos were developed until 54 hours post fertilization, at which time live specimens were anesthetized in Tricane, embedded in 1% low-melt agarose, and subjected to confocal microscopy. Spinal cord images were taken at 100 μm×100 μm and a scan depth of 50 μm. Single image planes from 488 nm and 568 nm excitation were collected. Images were then processed for threshold analysis using ImageJ and the total number puncta were scored.

[4] = target: T2, ^GFPHtt^ex1Q74; assay: GFPHttex1Q74 puncta in iPSC-derived neurons; format: cell-based; design: encoding pEGFP huntingtin exon-1 with 23 (^GFPHtt^ex1Q23) or 74 (^GFPHtt^ex1Q74) glutamines; host or cells: human iPSC-derived neurons (mixed cultures with astrocytes); conditions: co-expression
Description: as §1, §2

T2 sequence (P42858 with tags, fused parts or gaps): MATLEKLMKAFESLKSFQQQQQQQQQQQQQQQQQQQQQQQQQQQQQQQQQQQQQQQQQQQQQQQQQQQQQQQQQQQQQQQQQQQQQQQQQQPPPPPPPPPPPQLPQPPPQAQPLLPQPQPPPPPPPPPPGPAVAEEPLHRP
T1 sequence (P42858 with tags, fused parts or gaps DUP37-38): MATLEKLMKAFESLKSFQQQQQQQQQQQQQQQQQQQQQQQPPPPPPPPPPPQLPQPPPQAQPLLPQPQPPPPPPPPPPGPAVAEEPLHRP

B1: SRCP1: Dictyostelium discoideum serine-rich chaperone protein 1 (SEQ ID NO:2), expressed in cells as RFP-tagged construct (protein)
chain: MTILSTFTSFSNPPKLNKSSFSSSTGSSLSMGSNSFAWGGGWGGFGGPKGGSFNVDIAGNLIWGVYGFIRGGVGLVKWRGLQKGCKQP
modifications: RFP tag; Dictyostelium discoideum AX4
levels of GFPHttex1Q23 [1]: did not alter the levels of | neurite length [2]: significantly increased neurite length | GFPHttex1Q74 puncta in spinal cord neurons [3]: significant reduction of ^GFPHtt^ex1Q74 puncta | GFPHttex1Q74 puncta [4]: dramatic decrease in ^GFPHtt^ex1Q74 puncta
